Measured values: patent US20040191811A1, “Methods for measuring levels of uridine-diphosphate-N-acetylglucosamine and activity of inhibitors thereof” (priority 2002, published 2004)

B1: GFAT-alpha (Homo sapiens) (protein)
chain: MCGIFAYLNYHVPRTRREILETLIKGLQRLEYRGYDSAGVGFDGGNDKDWEANACKIQLIKKKGKVKALDEEVHKQQDMDLDIEFDVHLGIAHTRWATHGEPSPVNSHPQRSDKNNEFIVIHNGIITNYKDLKKFLESKGYDFESETDTETIAKLVKYMYDNRESQDTSFTTLVERVIQQLEGAFALVFKSVHFPGQAVGTRRGSPLLIGVRSEHKLSTDHIPILYRTGKDKKGSCNLSRVDSTTCLFPVEEKAVEYYFASDASAVIEHTNRVIFLEDDDVAAVVDGRLSIHRIKRTAGDHPGRAVQTLQMELQQIMKGNFSSFMQKEIFEQPESVVNTMRGRVNFDDYTVNLGGLKDHIKEIQRCRRLILIACGTSYHAGVATRQVLEELTELPVMVELASDFLDRNTPVFRDDVCFFLSQSGETADTLMGLRYCKERGALTVGITNTVGSSISRETDCGVHINAGPEIGVASTKAYTSQFVSLVMFALMMCDDRISMQERRKEIMLGLKRLPDLIKEVLSMDDEIQKLATELYHQKSVLIMGRGYHYATCLEGALKIKEITYMHSEGILAGELKHGPLALVDKLMPVIMIIMRDHTYAKCQNALQQVVARQGRPVVICDKEDTETIKNTKRTIKVPHSVDCLQGILSVIPLQLLAFHLAVLRGYDVDFPRNLAKSVTVE
notes: made in house; host or cells: SF9 insect cells (sonicated, centrifuged cell extract, not purified)
B2: GFAT-beta (Homo sapiens) (protein)
chain: MCGIFAYMNYRVPRTRKEIFETLIKGLQRLEYRGYDSAGVAIDGNNHEVKERHIQLVKKRGKVKALDEELYKQDSMDLKVEFETHFGIAHTRWATHGVPSAVNSHPQRSDKGNEFVVIHNGIITNYKDLRKFLESKGYEFESETDTETIAKLIKYVFDNRETEDITFSTLVERVIQQLEGAFALVFKSVHYPGEAVATRRGSPLLIGVRSKYKLSTEQIPILYRTCTLENVKNICKTRMKRLDSSACLHAVGDKAVEFFFASDASAIIEHTNRVIFLEDDDIAAVADGKLSIHRVKRSASDDPSRAIQTLQMELQQIMKGNFSAFMQKEIFEQPESVFNTMRGRVNFETNTVLLGGLKDHLKEIRRCRRLIVIGCGTSYHAAVATRQVLEELTELPVMVELASDFLDRNTPVFRDDVCFFISQSGETADTLLALRYCKDRGALTVGVTNTVGSSISRETDCGVHINAGPEIGVASTKAYTSQFISLVMFGLMMSEDRISLQNRRQEIIRGLRSLPELIKEVLSLEEKIHDLALELYTQRSLLVMGRGYNYATCLEGALKIKEITYMHSEGILAGELKHGPLALIDKQMPVIMVIMKDPCFAKCQNALQQVTARQGRPIILCSKDDTESSKFAYKTIELPHTVDCLQGILSVIPLQLLSFHLAVLRGYDVDFPRNLAKSVTVE
notes: as for B1

Experiments:
Type in all cases: biochemical, human
Details in all cases: other: extracts from transfected SF9 insect cells, 60 minutes at 37° C.
[1] = substrate: O=C(CO)[C@@H](O)[C@H](O)[C@H](O)COP(=O)(O)O; test: Substrate Km determination for GFAT-alpha (Lineweaver-Burk plot)
Protocol: (§1) FIG. 3 illustrates the effect of varying concentrations of the substrates glutamine and fructose 6-phosphate on the enzyme activity of GFAT-alpha and GFAT-beta. FIG. 3A is a graph illustrating incubation with 10 μl glutamine 200 mM+10 μl fructose 6-phosphate 3.125, 6.25, 12.5, 25, 50, 100, and 200 mM. FIG. 3B is a graph illustrating incubation with 10 μl fructose 6-phosphate 200 mM+10 μl glutamine 3.125, 6.25, 12.5, 25, 50, 100, and 200 mM. 10 μl of GFAT-alpha and 5 μl of GFAT-beta extracts from transfected SF9 insect cells are incubated with 1) 10 μl glutamine 200 mM+10 μl fructose 6-phosphate 3.125, 6.25, 12.5, 25, 50, 100, and 200 mM, and 2) 10 μl fructose 6-phosphate 200 mM+10 μl glutamine 3.125, 6.25, 12.5, 25, 50, 100, and 200 mM in an incubation media containing 10 μl PBS 10×, 10 μl EDTA 50 mM, 10 μl DTT 10 mM, and water to 100 μl. The plate is sealed with a Costar plate sealer and incubated for 60 minutes at 37° C. by floating on a water bath. Additional incubation mixture is kept on ice to add to standard and control samples. […] After a 20-minute incubation at 37° C., the OD is determined for each well at 585 nm.
(§2) FIG. 3C is a table illustrating the Km values of the substrates for the GFAT-alpha and GFAT-beta enzymes calculated from the data generated in FIGS. 3A and 3B. […]

[2] = substrate: NC(=O)CC[C@H](N)C(=O)O; test: as above
Protocol: as §1, §2

[3] = substrate: O=C(CO)[C@@H](O)[C@H](O)[C@H](O)COP(=O)(O)O; test: Substrate Km determination for GFAT-beta (Lineweaver-Burk plot)
Protocol: as §1, §2

[4] = substrate: NC(=O)CC[C@H](N)C(=O)O; test: as above
Protocol: as §1, §2

| Protein | Km [1] [µM] | Km [2] [µM] | Km [3] [µM] | Km [4] [µM] |
| --- | --- | --- | --- | --- |
| B1 | 1850 | 1490 |  |  |
| B2 |  |  | 6800 | 1990 |
